Data on one substance can be found in patent US20200363410A1.

The target in test [1] is biotinylated MPT63 (Rv1926c) polypeptide (M. tuberculosis H37Rv).
Test [2] deals with biotinylated MPT64 (Rv1980c) polypeptide (M. tuberculosis H37Rv).
In test [3] the target is biotinylated Ag85A (Rv3804c) polypeptide (M. tuberculosis H37Rv).
Test [4] addresses biotinylated MTC28 (Rv0040c) polypeptide (M. tuberculosis H37Rv).
For test [5], the target named is biotinylated Ag85B (Rv1886c) polypeptide (M. tuberculosis H37Rv) (UniProt A5U3Q3).

Sequence of streptavidin (P22629 37-163 limits assumed): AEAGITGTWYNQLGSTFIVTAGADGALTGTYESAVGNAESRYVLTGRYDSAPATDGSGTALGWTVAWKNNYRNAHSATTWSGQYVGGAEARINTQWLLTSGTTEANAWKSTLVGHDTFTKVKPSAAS

As for “streptavidin (from UniProt P22629 37-163)”, the Extent of biotinylation (share of protein adsorbed on streptavidin beads) in test [1] is 99.9%; in test [2], 99.8%; in test [3] it was 99.9%; in test [4], 99.8%; in test [5], 99.9%. Also, the Fold reduction in protein reactivity after adsorption in test [1] came out at 1000 fold; in test [2] it was 500 fold; in test [3], 4000 fold; in test [4], 500 fold; in test [5], 1000 fold.
